Experimental data taken from IntAct's records for PubMed 31515488.

B1: Elongin-A2 (Homo sapiens), Q8IYF1 (parent)
chain: MAAGSTTLHAVEKLQVRLATKTEPKKLEKYLQKLSALPMTADILAETGIRKTVKRLRKHQHVGDFARDLAARWKKLVLVDRNTRPGPQDPEESASRQRFGEALQDQEKAWGFPENATAPRSPSHSPEHRRTARRTPPGQQRPHPRSHSREPRAERKCPRIAPADSGRYRASPTRTAPLRMPEGPEPAAPGKQPGRGHTHAAQGGPLLCPGCQGQPQGKAVVSHSKGHKSSRQEKRPLCAQGDWHSPTLIREKSCGACLREETPRMPSWASARDRQPSDFKTDKEGGQAGSGQRVPALEEAPDSHQKRPQHSHSNKKRPSLDGRDPGNGTHGLSPEEKEQLSNDRETQEGKPPTAHLDRTSVSSLSEVEEVDMAEEFEQPTLSCEKYLTYDQLRKQKKKTGKSATTALGDKQRKANESKGTRESWDSAKKLPPVQESQSERLQAAGADSAGPKTVPSHVFSELWDLSEAWMQANYDPLSDSDSMTSQAKPEALSSPKFREEAAFPGRRVNAKMPVYSGSRPACQLQVPTLRQQCAQVLRNNPDALSDVGEVPYWVLEPVLEGWRPDQLYRRKKDNHALVRETDELRRNHCFQDFKEEKPQENKTWREQYLRLPDAPEQRLRVMTTNIRSARGNNPNGREAKMICFKSVAKTPYDTSRRQEKSAGDADPENGEIKPASKPAGSSHTPSSQSSSGGGRDSSSSILRWLPEKRANPCLSSSNEHAAPAAKTRKQAAKKVAPLMAKAIRDYKRRFSRR
partner: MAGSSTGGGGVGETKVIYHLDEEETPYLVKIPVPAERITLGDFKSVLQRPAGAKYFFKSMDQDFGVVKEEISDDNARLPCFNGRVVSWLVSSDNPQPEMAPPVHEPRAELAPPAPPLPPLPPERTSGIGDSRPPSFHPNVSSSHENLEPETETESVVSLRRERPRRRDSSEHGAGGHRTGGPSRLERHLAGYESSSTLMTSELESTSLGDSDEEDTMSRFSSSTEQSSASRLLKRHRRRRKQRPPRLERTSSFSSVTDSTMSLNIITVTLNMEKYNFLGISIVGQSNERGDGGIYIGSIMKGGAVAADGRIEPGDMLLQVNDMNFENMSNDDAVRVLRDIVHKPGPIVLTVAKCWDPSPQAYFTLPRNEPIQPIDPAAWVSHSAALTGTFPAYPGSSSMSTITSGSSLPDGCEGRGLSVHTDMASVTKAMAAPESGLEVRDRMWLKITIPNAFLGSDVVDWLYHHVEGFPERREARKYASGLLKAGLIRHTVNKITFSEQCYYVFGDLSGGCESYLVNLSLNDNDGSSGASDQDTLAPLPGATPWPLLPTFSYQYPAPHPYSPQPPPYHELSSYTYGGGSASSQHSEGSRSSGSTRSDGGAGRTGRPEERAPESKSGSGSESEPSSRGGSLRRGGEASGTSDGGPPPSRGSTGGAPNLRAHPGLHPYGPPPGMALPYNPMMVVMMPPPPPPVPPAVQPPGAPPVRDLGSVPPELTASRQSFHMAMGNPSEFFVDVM
B2: Phosphatidylserine lipase ABHD16A (Homo sapiens), O95870 (parent)
chain: MAKLLSCVLGPRLYKIYRERDSERAPASVPETPTAVTAPHSSSWDTYYQPRALEKHADSILALASVFWSISYYSSPFAFFYLYRKGYLSLSKVVPFSHYAGTLLLLLAGVACLRGIGRWTNPQYRQFITILEATHRNQSSENKRQLANYNFDFRSWPVDFHWEEPSSRKESRGGPSRRGVALLRPEPLHRGTADTLLNRVKKLPCQITSYLVAHTLGRRMLYPGSVYLLQKALMPVLLQGQARLVEECNGRRAKLLACDGNEIDTMFVDRRGTAEPQGQKLVICCEGNAGFYEVGCVSTPLEAGYSVLGWNHPGFAGSTGVPFPQNEANAMDVVVQFAIHRLGFQPQDIIIYAWSIGGFTATWAAMSYPDVSAMILDASFDDLVPLALKVMPDSWRGLVTRTVRQHLNLNNAEQLCRYQGPVLLIRRTKDEIITTTVPEDIMSNRGNDLLLKLLQHRYPRVMAEEGLRVVRQWLEASSQLEEASIYSRWEVEEDWCLSVLRSYQAEHGPDFPWSVGEDMSADGRRQLALFLARKHLHNFEATHCTPLPAQNFQMPWHL

Variants of: B1
Settings: with dvl2_human DVL2, O14641

Effect of a mutation on the interaction, with no effect:
A446T
T6S
R498Q
D302H
C254F
R179P

Variants of: B2
Settings: with dtx2_human DTX2, Q86UW9
Sequence of dtx2_human DTX2, Q86UW9 (Q86UW9 whole entry): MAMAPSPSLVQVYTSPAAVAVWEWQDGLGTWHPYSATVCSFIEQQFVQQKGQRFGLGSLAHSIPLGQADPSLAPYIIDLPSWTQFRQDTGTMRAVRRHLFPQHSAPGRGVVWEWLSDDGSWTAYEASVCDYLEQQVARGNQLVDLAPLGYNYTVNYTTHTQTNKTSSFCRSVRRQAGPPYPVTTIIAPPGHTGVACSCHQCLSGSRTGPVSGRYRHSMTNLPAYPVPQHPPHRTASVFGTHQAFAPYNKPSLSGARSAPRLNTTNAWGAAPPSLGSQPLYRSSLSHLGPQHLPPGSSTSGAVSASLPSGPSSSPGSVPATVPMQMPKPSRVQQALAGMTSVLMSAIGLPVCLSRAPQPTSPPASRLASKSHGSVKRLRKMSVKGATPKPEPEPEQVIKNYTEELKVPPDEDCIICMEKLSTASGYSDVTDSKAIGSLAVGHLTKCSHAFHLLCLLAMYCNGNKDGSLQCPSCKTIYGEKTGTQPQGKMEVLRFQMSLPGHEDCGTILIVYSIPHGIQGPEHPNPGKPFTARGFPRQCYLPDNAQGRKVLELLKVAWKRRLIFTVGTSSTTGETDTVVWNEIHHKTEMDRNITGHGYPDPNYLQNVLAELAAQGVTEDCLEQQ

Effect of a mutation on the interaction, with no effect:
MAKLLSCVLGPRLYKIYRERDSERAPASVPETPTAVTAPHSSSWDTYYQPRALEKHADSILALASVFWSISYYSSPFAFFYLYRKGYLSLSKVVPFSHYAGTLLLLLAGVACLRGIGRWTNPQYRQFITILEATHRNQSSENKRQLANYNFDFRSWPVDFHWEEPSSRKESRGGPSRRGVALLLPEPLHRGTADTLLNRVKKLPCQITSYLVAHTLGRRMLYPGSVYLLQKALMPVLLQGQARLVEECNGRRAKLLACDGNEIDTMFVDRRGTAEPQGQKLVICCEGNAGFYEVGCVSTPLEAGYSVLGWNHPGFAGSTGVPFPQNEANAMDVVVQFAIHRLGFQPQDIIIYAWSIGGFTATWAAMSYPDVSAMILDASFDDLVPLALKVMPDSWRGLVTRTVRQHLNLNNAEQLCRYQGPVLLIRRTKDEIITTTVPEDIMSNRGNDLLLKLLQHRYPRVMAEEGLRVVRQWLEASSQLEEASIYSRWEVEEDWCLSVLRSYQAEHGPDFPWSVGEDMSADGRRQLALFLARKHLHNFEATHCTPLPAQNFQMPWHL [R184L]
